Results from paper PMC3823233 (Nature structural & molecular biology, 2013).

Tests used:
[1] = target: BG505 SOSIP.664 gp140 trimer (HIV-1 clade A, isolate BG505 …, stabilised, glycosylated)
gp120 from strain JRCSF = gp120 from strain JRCSF (HIV-1 (isolate JRCSF), UniProt P20871); test: ELISA
gp120 from strain JRFL = gp120 from strain JRFL (HIV-1 clade B, isolate JR-FL, UniProt Q75760, strain); test: ELISA

B1: PGT 135 Fab (Fab, V domains shown)
VH: QLQMQESGPGLVKPSETLSLSCTVSGDSIRGGEWGDKDYHWGWVRHSAGKGLEWIGSIHWRGTTHYKESLRRRVSMSIDTSRNWFSLRLASVTAADTAVYFCARHRHHDVFMLVPIAGWFDVWGPGVQVTVSS
VL: EIVMTQSPDTLSVSPGETVTLSCRASQNINKNLAWYQYKPGQSPRLVIFETYSKIAAFPARFVASGSGTEFTLTINNMQSEDVAVYYCQQYEEWPRTFGQGTKVDIK
- stoichiometry N [1]: 3 Fabs per trimer

B2: PGT 135 IgG (antibody, V domains shown)
VH: QLQMQESGPGLVKPSETLSLSCTVSGDSIRGGEWGDKDYHWGWVRHSAGKGLEWIGSIHWRGTTHYKESLRRRVSMSIDTSRNWFSLRLASVTAADTAVYFCARHRHHDVFMLVPIAGWFDVWGPGVQVTVSS
VL: EIVMTQSPDTLSVSPGETVTLSCRASQNINKNLAWYQYKPGQSPRLVIFETYSKIAAFPARFVASGSGTEFTLTINNMQSEDVAVYYCQQYEEWPRTFGQGTKVDIK
- binding result (gp120 from strain JRCSF): binds
- binding result (gp120 from strain JRFL): binds
